One assay concerns the target cyclin D2 (Mus musculus (Mouse), UniProt P30280). The experiment in a line: GST pull-down of radiolabelled cyclins D2 and D3. Here is the method:
(§1) Panel A is an autoradiograph of aliquots of the ^35S-methionine-labeled products, derived from the in vitro transcription and translation of plasmids containing CDNA coding sequences of the cdc or cdk gene indicated in the legend below lanes 1–6, separated by electrophoresis on denaturing polyacrylamide gels. Equal aliquots of the "input" samples shown in lanes 1–6 were incubated with control beads (lanes 7–12) (i.e., GST-Sepharose; GST=glutathione S-transferase) or with beads containing a GST-p19 fusion protein (lanes 13–18), after which the beads were washed, and adsorbed radiolabeled products were separated on gels and autoradiographed. In Panel B, the experiments were performed as in panel A, except that radiolabeled cyclins D2 and D3 were substituted for cdk gene products; the cdk4 gene product was used as a positive control. All autoradiographic exposure times were 15 hrs.
(§2) Plasmids derived from pBluescript and containing the entire coding sequences of the mouse cdk2, cdk4, cdk5, or cdk6 genes (Matsuoka et al., Mol. Cell. Biol. 14:7265–7275 (1994); Matsushime et al., Cell 71:323–334 (1992)) or human cdc2/cdk1 or cdk3 genes (provided by Drs. Matthew Meyer-son and Edward Harlow (MGH Cancer Center, Cambridge, Mass.)) were transcribed and translated in vitro (Matsuoka et al., Mol. Cell. Biol. 14:7265–7275 (1994)). Mouse cdk6 cDNA was cloned from a mouse macrophage library (Stratagene, La Jolla, Calif.) by screening with a full-length human cdk6 clone (also provided by M. Meyerson and E. Harlow). Following transcription and translation, rabbit reticulocyte lysates containing ^35S-methionine labeled CDKs (20–40 ul) were diluted to 0.5 ml in IP kinase buffer (50 mM Hepes, pH 7.5, containing 150 mM NaCl, 1 mM EDTA, 1 mM DTT, 0.1% Tween-20) containing 10 mg/ml BSA and mixed with 1 ug of purified GST or GST-p19 immobilized on glutathione-Sepharose beads. After 2 hours of incubation at 4° C., beads were collected by centrifugation, washed 4 times in IP kinase buffer, and the bound proteins were denatured and analyzed by electrophoresis on 12.5% polyacrylamide gels containing SDS (Anderson, S. J., et al., J. Virol. 51:730–741 (1984)).

In a further assay the target is T1, cyclin D3 (Mus musculus (Mouse), UniProt P30282).
T1 sequence: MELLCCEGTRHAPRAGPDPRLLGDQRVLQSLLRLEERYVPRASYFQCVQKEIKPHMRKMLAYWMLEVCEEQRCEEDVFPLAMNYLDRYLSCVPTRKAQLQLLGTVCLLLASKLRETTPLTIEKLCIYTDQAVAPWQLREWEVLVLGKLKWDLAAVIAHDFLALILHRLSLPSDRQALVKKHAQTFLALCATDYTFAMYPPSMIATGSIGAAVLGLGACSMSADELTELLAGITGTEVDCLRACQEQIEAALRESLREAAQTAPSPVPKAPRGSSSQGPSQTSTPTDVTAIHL
The experiment in a line: GST pull-down of radiolabelled cyclins D2 and D3. How it is done: as §1, §2

The next assay deals with mouse CDK2 (mouse, UniProt P97377-2). As to the kind of experiment: GST pull-down of 35S-labelled in vitro translated CDKs. Here is the method: (§3) Equal aliquots of the "input" samples shown in lanes 1–6 were incubated with control beads (lanes 7–12) (i.e., GST-Sepharose; GST=glutathione S-transferase) or with beads containing a GST-p19 fusion protein (lanes 13–18), after which the beads were washed, and adsorbed radiolabeled products were separated on gels and autoradiographed. In Panel B, the experiments were performed as in panel A, except that radiolabeled cyclins D2 and D3 were substituted for cdk gene products; the cdk4 gene product was used as a positive control. All autoradiographic exposure times were 15 hrs.
(§4) Human InK4 polypeptides specifically bind to the cyclin D-dependent catalytic subunits, CDK4 and CDK6 (5,18,45). To study the interactions of mouse p19 and p18 with CDKs, cDNAs encoding CDC2 (CDK1) and CDKs 2–6 were transcribed and translated in vitro, and the radiolabeled products were mixed with GST-tagged p19 and p18 fusion proteins adsorbed to glutathione-Sepharose beads or to GST-Sepharose beads as a control.
as §2

In the next assay the target is mouse CDK5 (mouse, UniProt P49615). The assay is described as above. Here is the method:
as §3, §4, §2

The next assay addresses human CDC2 (CDK1) (human, UniProt P06493). Described as above. Here is the method:
as §3, §4, §2

Assay [1] has as its target cyclin D1 (endogenous, murine BAC1.2F5 macrophages) (mouse, UniProt P25322). The experiment in a line: co-immunoprecipitation from lysates of proliferating mouse cells with antiserum to the p19 C-terminus.

B1: GST-p19 fusion protein (glutathione S-transferase fused to mouse InK4d-p19) (other)
chain: MLLEEVCVGDRLSGARARGDVQEVRRLLHRELVHPDALNRFGKTALQVMMFGSPAVALELLKQGASPNVQDASGTSPVHDAARTGFLDTLKVLVEHGADVNALDSTGSLPIHLAIREGHSSVVSFLAPESDLHHRDASGLTPLELARQRGAQNLMDILQGHMMIPM
Regarding B1, the binding result with cyclin D2 is “no binding”; with cyclin D3, “no binding”; in the assay with mouse CDK2 it was “no binding (tested: 1 ug on beads)”; in the assay with mouse CDK5 it was “no binding (tested: 1 ug on beads)”; with human CDC2 (CDK1), “no binding (tested: 1 ug on beads)”.

B2: mouse InK4d-p19 (other)
chain: MLLEEVCVGDRLSGARARGDVQEVRRLLHRELVHPDALNRFGKTALQVMMFGSPAVALELLKQGASPNVQDASGTSPVHDAARTGFLDTLKVLVEHGADVNALDSTGSLPIHLAIREGHSSVVSFLAPESDLHHRDASGLTPLELARQRGAQNLMDILQGHMMIPM
On to B2, for which, in assay [1], the binding result is reported as “no binding”.

B3: GST-p18 fusion protein (glutathione S-transferase fused to mouse InK4c-p18) (other)
chain: MAEPWGNELASAAARGDLEQLTSLLQNNVNVNAQNGFGRTALQVMKLGNPEIARRLLLRGANPNLKDGTGFAVIHDAARAGFLDTVQALLEFQADVNIEDNEGNLPLHLAAKEGHLPVVEFLMKHTACNVGHRNHKGDTAFDLARFYGRNEVISLMEANGVGGATSLQ
As for B3, the binding result in the assay with cyclin D2, with cyclin D3, with mouse CDK2, in the assay with mouse CDK5 and with human CDC2 (CDK1) was “no binding” throughout.
